In patent US8734776B2 (ZymoGenetics, Inc., priority 2003, dated 2014):

How the values were obtained:
zcyto20 = biological target: T1, zcyto20 (Homo sapiens, UniProt Q8IZJ0); test: Inhibition of ligand-induced ISRE signaling by soluble receptors, zcyto20; assay type: cell-based; conditions: soluble receptor 10 micrograms/ml; for Percent Inhibition of Ligand-induced ISRE Signaling by Soluble Receptors: ligand Zcyto20 10 ng/ml; for effect on ligand-induced signaling: zcyto20, zcyto21 or zcyto24 10 ng/ml
T1 sequence (Q8IZJ0 26-200): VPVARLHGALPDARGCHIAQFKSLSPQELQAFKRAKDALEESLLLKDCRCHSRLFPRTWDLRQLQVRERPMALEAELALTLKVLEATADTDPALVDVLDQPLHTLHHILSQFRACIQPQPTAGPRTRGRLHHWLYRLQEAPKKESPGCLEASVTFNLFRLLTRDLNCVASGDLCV
Text: (§1) A signal transduction reporter assay can be used to show the inhibitor properties of zcytor19-Fc4 homodimeric and zcytor19-Fc/CRF2-4-Fc heterodimeric soluble receptors on zcyto20, zcyto21 and zcyto24 signaling Human embryonal kidney (HEK) cells overexpressing the zcytor19 receptor are transfected with a reporter plasmid containing an interferon-stimulated response element (ISRE) driving transcription of a luciferase reporter gene. Luciferase activity following stimulation of transfected cells with ligands (including zcyto20 (SEQ ID NO:2), zcyto21 (SEQ ID NO:4), zcyto24 (SEQ ID NO: 8)) reflects the interaction of the ligand with soluble receptor.
(§2) 293 HEK cells overexpressing zcytor19 were transfected as follows: 700,000 293 cells/well (6 well plates) were plated approximately 18 h prior to transfection in 2 milliliters DMEM+10% fetal bovine serum. Per well, 1 microgram pISRE-Luciferase DNA (Stratagene) and 1 microgram pIRES2-EGFP DNA (Clontech,) were added to 6 microliters Fugene 6 reagent (Roche Biochemicals) in a total of 100 microliters DMEM. This transfection mix was added 30 minutes later to the pre-plated 293 cells. Twenty-four hours later the transfected cells were removed from the plate using trypsin-EDTA and replated at approximately 25,000 cells/well in 96 well microliter plates. Approximately 18 h prior to ligand stimulation, media was changed to DMEM+0.5% FBS.
(§3) The signal transduction reporter assays were done as follows: Following an 18 h incubation at 37° C. in DMEM+0.5% FBS, transfected cells were stimulated with 10 ng/ml zcyto20, zcyto21 or zcyto24 and 10 micrograms/ml of the following soluble receptors; human zcytor19-Fc homodimer, human zcytor19-Fc/human CRF2-4-Fc heterodimer, human CRF2-4-Fc homodimer, murine zcytor19-Ig homodimer. Following a 4-hour incubation at 37° C., the cells were lysed, and the relative light units (RLU) were measured on a luminometer after addition of a luciferase substrate. The results obtained are shown as the percent inhibition of ligand-induced signaling in the presence of soluble receptor relative to the signaling in the presence of PBS alone.

zcyto24 = biological target: T2, zcyto24 (Mus musculus, UniProt Q4VK74); test: Inhibition of ligand-induced ISRE signaling by soluble receptors, zcyto24; assay type: cell-based; conditions: ligand Zcyto24 10 ng/ml; soluble receptor 10 micrograms/ml
T2 sequence (Q4VK74 20-193): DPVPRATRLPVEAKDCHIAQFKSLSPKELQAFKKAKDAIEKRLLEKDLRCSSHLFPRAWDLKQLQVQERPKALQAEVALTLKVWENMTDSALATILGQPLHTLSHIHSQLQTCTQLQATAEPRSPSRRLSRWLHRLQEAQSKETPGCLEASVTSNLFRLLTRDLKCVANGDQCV
Text: as §1, §2, §3

zcyto21 = zcyto21 (Homo sapiens, UniProt Q8IU54); test: Inhibition of ligand-induced ISRE signaling by soluble receptors, zcyto21; assay type: cell-based; conditions: ligand Zcyto21 10 ng/ml; soluble receptor 10 micrograms/ml
Chain of zcyto21 (Q8IU54 20-200): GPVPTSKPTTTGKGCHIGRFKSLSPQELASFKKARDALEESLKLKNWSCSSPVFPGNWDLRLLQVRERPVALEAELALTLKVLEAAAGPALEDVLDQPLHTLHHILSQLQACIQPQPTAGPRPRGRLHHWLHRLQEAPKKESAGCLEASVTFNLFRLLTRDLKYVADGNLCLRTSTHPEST
Text: as §1, §2, §3

[1] = tested on: encephelomyocarditis virus; test: Antiviral assay: cytopathic effect in HeLa cells; assay type: cell-based, human
[2] = tested on: encephelomyocarditis virus; test: Antiviral assay: cytopathic effect in L929 cells; assay type: cell-based, mouse
[3] = relative CM concentration .008X
[4] = relative CM concentration .0156X
[5] = relative CM concentration .0325X
[6] = relative CM concentration .0625X
[7] = relative CM concentration .125X

Molecule: HuCRF2-4-Fc: human CRF2-4-Fc homodimer soluble receptor
- Percent Inhibition of Ligand-induced ISRE Signaling by Soluble Receptors (zcyto20): 80%
- effect on ligand-induced signaling (zcyto20): No significant effects
- Percent Inhibition of Ligand-induced ISRE Signaling by Soluble Receptors (zcyto24): 82%
- Percent Inhibition of Ligand-induced ISRE Signaling by Soluble Receptors (zcyto21): 79%

Molecule: Huzcytor19-Fc/huCRF2-4-Fc: human zcytor19-Fc/human CRF2-4-Fc heterodimer soluble receptor
- Percent Inhibition of Ligand-induced ISRE Signaling by Soluble Receptors (zcyto20): 16%
- Percent Inhibition of Ligand-induced ISRE Signaling by Soluble Receptors (zcyto24): 47%
- Percent Inhibition of Ligand-induced ISRE Signaling by Soluble Receptors (zcyto21): 16%

B1: IL-28B: human IL-28B, previously designated zcyto22, SEQ ID NO:6 (protein, listed as Homo sapiens)
chain: MKLDMTGDCMPVLVLMAAVLTVTGAVPVARLRGALPDARGCHIAQFKSLSPQELQAFKRAKDALEESLLLKDCKCRSRLFPRTWDLRQLQVRERPVALEAELALTLKVLEATADTDPALGDVLDQPLHTLHHILSQLRACIQPQPTAGPRTRGRLHHWLHRLQEAPKKESPGCLEASVTFNLFRLLTRDLNCVASGDLCV
modifications: SIGNAL (1)...(25)
- Percentage Cytopathic Effect [1, 3]: 0%
- Percentage Cytopathic Effect [1, 4]: 0%
- Percentage Cytopathic Effect [1, 5]: 0%
- Percentage Cytopathic Effect [1, 6]: 0%
- Percentage Cytopathic Effect [1, 7]: 0%
- Percentage Cytopathic Effect ([1]; relative CM concentration .25X): 0%
- Percentage Cytopathic Effect ([1]; relative CM concentration .5X): 0%
- Percentage Cytopathic Effect ([2]; relative CM conc. .008X): 87%
- Percentage Cytopathic Effect ([2]; relative CM conc. .0156X): 87%
- Percentage Cytopathic Effect ([2]; relative CM conc. .0325X): 87%
- Percentage Cytopathic Effect ([2]; relative CM conc. .0625X): 87%
- Percentage Cytopathic Effect ([2]; relative CM conc. .125X): 87%
- Percentage Cytopathic Effect ([2]; relative CM conc. .25X): 87%
- Percentage Cytopathic Effect ([2]; relative CM conc. .5X): 87%

B2: Huzcytor19-Fc: human zcytor19-Fc homodimer soluble receptor (protein)
chain: RPRLAPPQNVTLLSQNFSVYLTWLPGLGNPQDVTYFVAYQSSPTRRRWREVEECAGTKELLCSMMCLKKQDLYNKFKGRVRTVSPSSKSPWVESEYLDYLFEVEPAPPVLVLTQTEEILSANATYQLPPCMPPLDLKYEVAFWKEGAGNKTLFPVTPHGQPVQITLQPAASEHHCLSARTIYTFSVPKYSKFSKPTCFLLEVPEANWA
modifications: left off: a dimerising Fc or GST
notes: human zcytor19-Fc homodimer soluble receptor
- Percent Inhibition of Ligand-induced ISRE Signaling by Soluble Receptors (zcyto20): 92%
- Percent Inhibition of Ligand-induced ISRE Signaling by Soluble Receptors (zcyto24): 90%
- Percent Inhibition of Ligand-induced ISRE Signaling by Soluble Receptors (zcyto21): 45%

B3: Muzcytor19-Ig: murine zcytor19-Ig homodimer soluble receptor (protein)
chain: RPRLAPPRNVTLFSQNFTVYLTWLPGLGSPPNVTYFVTYQSYIKTGWRPVEHCAGIKALVCPLMCLKKLNLYSKFKGRVQAASAHGRSPRVESRYLEYLFDVELAPPTLVLTQMEKILRVNATYQLPPCMPSLELKYQVEFWKEGLGSKTLFPDTPYGQPVQIPLQQGASRRHCLSARTVYTLIDIKYSQFSEPSCIFLEAPGDKRA
modifications: left off: a dimerising Fc or GST
notes: murine zcytor19-Ig homodimer soluble receptor
- Percent Inhibition of Ligand-induced ISRE Signaling by Soluble Receptors (zcyto20): 91%
- effect on ligand-induced signaling (zcyto20): No significant effects
- Percent Inhibition of Ligand-induced ISRE Signaling by Soluble Receptors (zcyto24): 89%
- Percent Inhibition of Ligand-induced ISRE Signaling by Soluble Receptors (zcyto21): 103%

B4: zcyto25: mouse IL-28, SEQ ID NO:10 (protein, listed as Mus musculus)
chain: MKPETAGGHMLLLLLPLLLAAVLTRTQADPVPRATRLPVEAKDCHIAQFKSLSPKELQAFKKAKGAIEKRLLEKDMRCSSHLISRAWDLKQLQVQERPKALQAEVALTLKVWENINDSALTTILGQPLHTLSHIHSQLQTCTQLQATAEPKPPSRRLSRWLHRLQEAQSKETPGCLEDSVTSNLFQLLLRDLKCVASGDQCV
modifications: SIGNAL (1)...(28)
- Percentage Cytopathic Effect [1, 3]: 10%
- Percentage Cytopathic Effect [1, 4]: 5%
- Percentage Cytopathic Effect [1, 5]: 5%
- Percentage Cytopathic Effect [1, 6]: 0%
- Percentage Cytopathic Effect [1, 7]: 0%
- Percentage Cytopathic Effect ([1]; relative CM concentration .25X): 0%
- Percentage Cytopathic Effect ([1]; relative CM concentration .5X): 0%
- Percentage Cytopathic Effect ([2]; relative CM conc. .008X): 87%
- Percentage Cytopathic Effect ([2]; relative CM conc. .0156X): 87%
- Percentage Cytopathic Effect ([2]; relative CM conc. .0325X): 87%
- Percentage Cytopathic Effect ([2]; relative CM conc. .0625X): 87%
- Percentage Cytopathic Effect ([2]; relative CM conc. .125X): 87%
- Percentage Cytopathic Effect ([2]; relative CM conc. .25X): 87%
- Percentage Cytopathic Effect ([2]; relative CM conc. .5X): 87%
